In the test the target is PaxA T1-CDD di-domain construct (thiolation domain followed by the C-terminal docking domain of PaxA) (Xenorhabdus cabanillasii JM26). Briefly: SEC + NMR titration; analytical gel filtration and NMR titration experiments; complex in slow exchange on the NMR time scale; NMR at 293 K, samples in 50 mM sodium phosphate pH 6.5, 100 mM NaCl, 2 mM β-mercaptoethanol, 5% D2O. On the technique in general: In gel filtration, larger molecules generally elute earlier.

Consider one substance from article PMC7973640.

By stoichiometry N is commonly meant a count of units in the complex or per binding partner.

For “PaxB N-terminal docking domain (amino acids 1-30 of PaxB followed by a non-native tyrosine) (domain or fragment)”, the stoichiometry N is 1.
